In patent WO2016038310A1 (dated 2016):

Assays:
[1] = biological target: T1, FSH ovine dimérique (ovine follicle-stimulating hormone) (ovine, UniProt P01218 25-120; P01227 20-129); experiment: cell-based or functional assay
[2] = biological target: T2, FSH humaine recombinante Gonal-F (recombinant human FSH, Merck Serono) (human, UniProt P01215 25-116; P01225 19-129); experiment: SPR (Biacore T100), A8 captured on anti-mouse Fc, hFSH injected
T2 construct: Commercial recombinant preparation; also called hFSH Gonal F; hFSH
T2 sequence (P01215 25-116 limits assumed, chain 1 of 2): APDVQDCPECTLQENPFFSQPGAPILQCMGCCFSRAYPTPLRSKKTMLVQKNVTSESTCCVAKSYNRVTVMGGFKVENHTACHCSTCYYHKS
T2 sequence (P01225 19-129 limits assumed, chain 2 of 2): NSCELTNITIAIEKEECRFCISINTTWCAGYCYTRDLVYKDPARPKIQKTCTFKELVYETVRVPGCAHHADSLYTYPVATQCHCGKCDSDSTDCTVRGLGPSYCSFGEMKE

[3] = biological target: T1, FSH ovine dimérique (ovine …); experiment: SPR (Biacore T100), A8 captured on anti-mouse Fc, oFSH injected
[4] = biological target: T2, FSH humaine recombinante Gonal-F …; experiment: SPR (Biacore T100), A8 captured on anti-mouse Fc, hFSH injected 1,56 to 50nM
[5] = biological target: T1, FSH ovine dimérique (ovine …); experiment: SPR (Biacore T100), A8 captured on anti-mouse Fc, oFSH injected 1,56 to 50nM
[6] = biological target: T3, eCG commerciale Chronogest (MSD) (equine, UniProt P01220 25-120; P08751 21-169); experiment: ELISA saturation binding, Kd estimated with GraphPad Prism (one site - specific binding)
T3 construct: Commercial preparation; also called eCG Chronogest
T3 sequence (P01220 25-120 limits assumed, chain 1 of 2): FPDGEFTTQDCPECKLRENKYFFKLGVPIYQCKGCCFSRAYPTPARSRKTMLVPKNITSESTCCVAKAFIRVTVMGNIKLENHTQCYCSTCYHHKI
T3 sequence (P08751 21-169 limits assumed, chain 2 of 2): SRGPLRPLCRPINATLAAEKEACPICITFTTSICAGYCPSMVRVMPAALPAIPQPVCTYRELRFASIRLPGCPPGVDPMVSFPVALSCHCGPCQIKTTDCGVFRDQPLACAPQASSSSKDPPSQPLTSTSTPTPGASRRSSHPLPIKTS

[7] = biological target: T4, hCG Chorulon (human chorionic gonadotropin extracted from urine, MSD) (human, UniProt P01215 25-116; P0DN86 21-165); experiment: as above
T4 construct: Commercial preparation
T4 sequence (P01215 25-116 limits assumed, chain 1 of 2, other chains not shown): as the sequence (P01215 25-116 limits assumed, chain 1 of 2) above

[8] = biological target: T5, hCG Endo 5000 (purified human chorionic gonadotropin, Schering-Plough) (human, UniProt P01215 25-116; P0DN86 21-165); experiment: as above
T5 construct: Commercial preparation; also called Gonadotropine Chorionique Endo5000
T5 sequence (P01215 25-116 limits assumed, chain 1 of 2, other chains not shown): as the sequence (P01215 25-116 limits assumed, chain 1 of 2) above

B1: anticorps monoclonal A8 (monoclonal antibody A8, hybridoma CNCM I-4828) (antibody, V domains shown)
VH: EVQLQESGGGLVQPGGSRKLSCAASGFTFSDFGTHWIRQAPEKGLEWVAYISSGSSTRYYADTVKGRFTISRDDPKNTLFLQMTSLRSEDTAMYYCARSYDGYHVPSFAYWGQGTLVTVSA
VL: DVLMTQTPLSLSVSLGDQASISCRSSQNIVHSNGNTYLEWYLQKPGQSPKLLIYRVSNRFSGIPDRFSGSSSGTDFTLKISRVEAEDLGVYYCFQGSHVPLTFGAGTKLELK
notes: Purified antibody or hybridoma supernatant, depending on the assay; also called AcM A8; ligand A8
B1 was tested, and the “sécrétion d'AMPc (cAMP secretion), bovine granulosa cells, oFSH 3ng/ml” value [1] was 2.1 fold, the “sécrétion d'AMPc (cAMP secretion), bovine granulosa cells, oFSH 12,5 ng/ml” value [1] was 1.5 fold and the koff [2] was 0.0011 s⁻¹. It also gave a kon [2] of 240000 M⁻¹ s⁻¹, a koff [3] of 0.00082 s⁻¹ and a kon [3] of 130000 M⁻¹ s⁻¹. The Kd [4] was 4.7 nM, the Kd [5] was 6.3 nM and the Kd [6] was about 100 nM. For the same binder, the Kd [7] was about 100 nM and the Kd [8] was about 100 nM.
